Among the data in patent publication US20260201015A1 (published 2026) are Kd values, retold here.

The target of experiment [1] is T1, parathyroid hormone (PTH) peptide (UniProt P01270 32-65, TAMRA label in FP assays (PTH-TAMRA), site not stated; biotinylated in yeast display).
T1 peptide: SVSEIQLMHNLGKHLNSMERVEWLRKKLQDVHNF
The experiment can be described thus: Split NanoBiT titration.

A further experiment concerns the target T2, secretin (SCT) (UniProt P09683 28-54, fluorescently labeled (FAM or TAMRA) in FP assays, site not stated).
T2 peptide: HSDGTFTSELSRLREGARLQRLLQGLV
Nature of the experiment: FP.

A further experiment deals with glucagon (GCG) (UniProt P01275 53-81, fluorescently labeled (FAM or TAMRA) in FP assays, site not stated; biotinylated in yeast display). The experiment can be described thus: FP.
glucagon (GCG), sequence (P01275 53-81): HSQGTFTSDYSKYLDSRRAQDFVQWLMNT

B1: parametrically designed PTH binder (SEQ ID NO: 1) (designed binder)
chain: SQELIEELIKLAKELAEIKDEEERRKIKRELERLAEELKEAPASSLLRALALLVIALALIQAAESEEERERARELLERLEELLRELEKQITDERFKEILRELEELAKELKKQL
B1: in experiment [1], the Kd (as a rule, a measure of binding affinity in units of concentration) is more than 1000 nM.

B2: GCG_C09 (RF Diffusion/Partial diffusion), partially diffused GCG binder, SEQ ID NO: 8 (designed binder)
chain: SMEKLAEIMQEIIEAYQEVKDAFFKFIKAVHEGAPEEELKKYLEKMKEALEKMKELLERLEKEAKKVIEENKDKKLELKVLLMLRLAYLLLKVSIELTKIAAEKLGDKELVEELEKESKEVEKKIKELEERIKKLLEEVDDEELKEAYKEVEEMEKEAEKFLEKMRKV
As to B2, the values for the Kd with secretin (SCT) and with glucagon (GCG) were 1.42 nM and less than 0.5 nM, respectively.
